Test results from patent US5827710, “DNA encoding the subunit of avian lactate dehydrogenase” (Oriental Yeast Co., Ltd., dated 1998).

Biological target: the molecule itself
Assay: gel filtration column chromatography (SMART system) of the purified recombinant protein: about 147,000 found, against about 36,000 calculated for each subunit
Source text: 3) Determination of the molecular weight of the recombinant chicken LDH-B₄ protein As a result of gel filtration column chromatography analysis of the purified sample by a SMART system (made by Pharmacia), the molecular weight of the purified recombinant chicken LDH-B₄ protein was about 147,000 (FIG. 10). It is presumed that the subunits B of chicken LDH are combined to form a tetramer (theoretical molecular weight of about 140,000) because the molecular weight of each subunit B of chicken LDH is calculated at about 36,000 from its amino acid sequence.

B1: type B subunit of chicken lactate dehydrogenase (recombinant, expressed in Saccharomyces cerevisiae from YRp1G-cLD-B) (enzyme)
chain: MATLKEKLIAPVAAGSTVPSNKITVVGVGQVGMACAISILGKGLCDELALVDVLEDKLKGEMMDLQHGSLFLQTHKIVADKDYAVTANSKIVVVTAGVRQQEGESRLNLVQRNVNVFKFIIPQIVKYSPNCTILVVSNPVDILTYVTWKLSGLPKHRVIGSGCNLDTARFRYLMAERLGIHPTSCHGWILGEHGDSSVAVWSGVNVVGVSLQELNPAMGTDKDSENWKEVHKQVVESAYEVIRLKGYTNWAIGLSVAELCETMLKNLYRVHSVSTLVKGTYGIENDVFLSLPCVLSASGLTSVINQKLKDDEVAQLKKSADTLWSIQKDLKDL
binding result: binds
